B1: Mothers against decapentaplegic homolog 4 (Homo sapiens), Q13485 (parent)
chain: MDNMSITNTPTSNDACLSIVHSLMCHRQGGESETFAKRAIESLVKKLKEKKDELDSLITAITTNGAHPSKCVTIQRTLDGRLQVAGRKGFPHVIYARLWRWPDLHKNELKHVKYCQYAFDLKCDSVCVNPYHYERVVSPGIDLSGLTLQSNAPSSMMVKDEYVHDFEGQPSLSTEGHSIQTIQHPPSNRASTETYSTPALLAPSESNATSTANFPNIPVASTSQPASILGGSHSEGLLQIASGPQPGQQQNGFTGQPATYHHNSTTTWTGSRTAPYTPNLPHHQNGHLQHHPPMPPHPGHYWPVHNELAFQPPISNHPAPEYWCSIAYFEMDVQVGETFKVPSSCPIVTVDGYVDPSGGDRFCLGQLSNVHRTEAIERARLHIGKGVQLECKGEGDVWVRCLSDHAVFVQSYYLDREAGRAPGDAVHKIYPSAYIKVFDLRQCHRQMQQQAATAQAAAAAQAAAVAGNIPGPGSVGGIAPAISLSAAAGIGVDDLRRLCILRMSFVKGWGPDYPRQSIKETPCWIEIHLHRALQLLDEVLHTMPIADPQPLD
partner: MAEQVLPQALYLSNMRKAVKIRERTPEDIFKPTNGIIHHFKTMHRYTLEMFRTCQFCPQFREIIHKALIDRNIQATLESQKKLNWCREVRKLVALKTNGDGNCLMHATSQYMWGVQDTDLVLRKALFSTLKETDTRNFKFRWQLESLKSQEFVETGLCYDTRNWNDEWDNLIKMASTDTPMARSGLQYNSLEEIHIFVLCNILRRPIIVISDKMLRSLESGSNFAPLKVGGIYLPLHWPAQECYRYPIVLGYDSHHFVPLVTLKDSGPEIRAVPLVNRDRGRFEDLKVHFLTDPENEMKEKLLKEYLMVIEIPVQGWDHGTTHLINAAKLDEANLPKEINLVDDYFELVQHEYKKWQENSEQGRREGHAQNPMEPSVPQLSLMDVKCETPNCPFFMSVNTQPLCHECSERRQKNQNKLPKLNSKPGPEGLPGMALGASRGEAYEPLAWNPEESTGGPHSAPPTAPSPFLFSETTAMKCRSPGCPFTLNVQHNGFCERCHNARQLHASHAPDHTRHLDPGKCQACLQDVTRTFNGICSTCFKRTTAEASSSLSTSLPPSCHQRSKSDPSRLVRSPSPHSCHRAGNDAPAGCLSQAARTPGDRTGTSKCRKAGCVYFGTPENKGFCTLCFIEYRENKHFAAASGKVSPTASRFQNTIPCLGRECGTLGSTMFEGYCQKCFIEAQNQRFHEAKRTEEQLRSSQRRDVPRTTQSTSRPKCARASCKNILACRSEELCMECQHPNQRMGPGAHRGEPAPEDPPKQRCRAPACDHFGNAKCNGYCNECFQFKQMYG
B2: Mothers against decapentaplegic homolog 4 (Homo sapiens), Q13485 (parent)
chain: B1 chain
partner: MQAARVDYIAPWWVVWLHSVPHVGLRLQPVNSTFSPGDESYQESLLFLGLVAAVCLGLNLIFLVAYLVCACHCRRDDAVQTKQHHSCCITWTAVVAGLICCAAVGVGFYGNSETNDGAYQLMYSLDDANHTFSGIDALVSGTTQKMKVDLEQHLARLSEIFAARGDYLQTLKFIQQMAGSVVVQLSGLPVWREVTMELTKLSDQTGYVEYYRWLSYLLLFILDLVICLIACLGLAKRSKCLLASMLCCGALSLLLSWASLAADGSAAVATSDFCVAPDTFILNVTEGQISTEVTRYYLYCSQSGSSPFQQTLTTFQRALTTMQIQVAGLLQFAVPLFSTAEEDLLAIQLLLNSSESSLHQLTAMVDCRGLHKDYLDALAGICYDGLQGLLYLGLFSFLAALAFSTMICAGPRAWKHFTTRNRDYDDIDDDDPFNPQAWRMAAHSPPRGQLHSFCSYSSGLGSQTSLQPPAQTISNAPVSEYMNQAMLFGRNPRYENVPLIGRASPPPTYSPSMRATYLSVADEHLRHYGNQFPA
B3: Mothers against decapentaplegic homolog 4 (Homo sapiens), Q13485 (parent)
chain: B1 chain
partner: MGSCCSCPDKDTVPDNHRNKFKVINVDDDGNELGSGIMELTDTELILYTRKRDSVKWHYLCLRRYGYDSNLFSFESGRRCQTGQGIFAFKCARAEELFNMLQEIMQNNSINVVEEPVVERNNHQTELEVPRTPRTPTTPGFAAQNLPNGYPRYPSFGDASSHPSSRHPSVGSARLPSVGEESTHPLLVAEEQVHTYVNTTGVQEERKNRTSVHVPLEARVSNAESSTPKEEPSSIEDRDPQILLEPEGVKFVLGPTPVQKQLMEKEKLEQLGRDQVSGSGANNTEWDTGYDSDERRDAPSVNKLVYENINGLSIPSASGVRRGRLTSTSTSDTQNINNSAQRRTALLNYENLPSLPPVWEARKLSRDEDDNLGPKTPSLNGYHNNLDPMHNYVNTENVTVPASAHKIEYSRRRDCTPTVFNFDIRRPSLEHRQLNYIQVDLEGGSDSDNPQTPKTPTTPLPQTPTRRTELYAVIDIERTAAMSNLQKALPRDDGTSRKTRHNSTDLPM
B4: Mothers against decapentaplegic homolog 4 (Homo sapiens), Q13485 (parent)
chain: B1 chain
partner: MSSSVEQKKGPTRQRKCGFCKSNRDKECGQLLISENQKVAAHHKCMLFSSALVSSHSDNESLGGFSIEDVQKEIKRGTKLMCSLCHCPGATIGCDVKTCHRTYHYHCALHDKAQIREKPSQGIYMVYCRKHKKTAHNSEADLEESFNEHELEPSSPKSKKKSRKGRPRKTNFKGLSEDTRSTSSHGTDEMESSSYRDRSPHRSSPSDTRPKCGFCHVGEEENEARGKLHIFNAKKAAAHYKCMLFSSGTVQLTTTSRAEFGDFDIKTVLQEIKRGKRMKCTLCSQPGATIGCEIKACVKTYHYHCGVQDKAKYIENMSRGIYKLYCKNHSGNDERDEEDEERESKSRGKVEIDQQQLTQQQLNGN
B5: Mothers against decapentaplegic homolog 4 (Homo sapiens), Q13485 (parent)
chain: B1 chain
partner: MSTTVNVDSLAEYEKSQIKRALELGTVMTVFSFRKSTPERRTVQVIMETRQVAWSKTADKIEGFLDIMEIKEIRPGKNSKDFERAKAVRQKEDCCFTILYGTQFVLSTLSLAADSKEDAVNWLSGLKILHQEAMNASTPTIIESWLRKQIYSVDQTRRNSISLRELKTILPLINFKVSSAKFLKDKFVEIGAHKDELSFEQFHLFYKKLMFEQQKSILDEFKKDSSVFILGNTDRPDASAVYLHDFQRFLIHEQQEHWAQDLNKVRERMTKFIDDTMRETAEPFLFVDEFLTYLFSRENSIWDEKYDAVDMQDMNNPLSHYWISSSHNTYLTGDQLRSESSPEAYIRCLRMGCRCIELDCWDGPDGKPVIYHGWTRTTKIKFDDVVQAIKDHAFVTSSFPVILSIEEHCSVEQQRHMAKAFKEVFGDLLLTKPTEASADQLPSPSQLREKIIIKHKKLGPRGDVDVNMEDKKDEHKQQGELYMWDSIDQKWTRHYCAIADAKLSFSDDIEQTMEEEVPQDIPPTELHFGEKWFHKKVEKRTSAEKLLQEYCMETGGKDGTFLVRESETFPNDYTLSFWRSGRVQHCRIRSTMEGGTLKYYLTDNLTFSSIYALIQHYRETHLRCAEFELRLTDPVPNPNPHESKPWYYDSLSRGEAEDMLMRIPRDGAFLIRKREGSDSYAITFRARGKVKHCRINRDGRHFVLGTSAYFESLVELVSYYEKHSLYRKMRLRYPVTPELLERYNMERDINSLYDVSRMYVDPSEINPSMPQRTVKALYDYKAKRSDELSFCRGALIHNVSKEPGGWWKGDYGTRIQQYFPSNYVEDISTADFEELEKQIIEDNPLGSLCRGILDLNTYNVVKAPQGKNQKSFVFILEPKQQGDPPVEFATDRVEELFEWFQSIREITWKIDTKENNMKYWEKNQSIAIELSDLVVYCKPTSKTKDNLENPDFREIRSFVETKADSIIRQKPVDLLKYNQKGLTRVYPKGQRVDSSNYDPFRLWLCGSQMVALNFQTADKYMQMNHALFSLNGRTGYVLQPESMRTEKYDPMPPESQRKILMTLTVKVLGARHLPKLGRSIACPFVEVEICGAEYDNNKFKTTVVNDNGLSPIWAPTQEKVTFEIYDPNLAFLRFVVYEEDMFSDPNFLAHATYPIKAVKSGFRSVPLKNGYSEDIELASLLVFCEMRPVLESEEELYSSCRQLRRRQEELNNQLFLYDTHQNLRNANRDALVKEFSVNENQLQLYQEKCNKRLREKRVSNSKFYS
B6: Mothers against decapentaplegic homolog 4 (Homo sapiens), Q13485 (parent)
chain: B1 chain
partner: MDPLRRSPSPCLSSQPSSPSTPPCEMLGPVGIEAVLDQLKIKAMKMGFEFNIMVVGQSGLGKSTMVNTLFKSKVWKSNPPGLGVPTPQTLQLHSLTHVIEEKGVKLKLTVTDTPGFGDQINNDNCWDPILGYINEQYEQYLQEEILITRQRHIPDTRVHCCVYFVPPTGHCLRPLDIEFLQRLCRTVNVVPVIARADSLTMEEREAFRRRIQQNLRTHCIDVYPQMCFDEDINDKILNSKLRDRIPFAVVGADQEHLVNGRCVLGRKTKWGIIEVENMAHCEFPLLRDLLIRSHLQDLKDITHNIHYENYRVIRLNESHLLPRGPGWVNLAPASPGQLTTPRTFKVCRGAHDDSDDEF
B7: Mothers against decapentaplegic homolog 4 (Homo sapiens), Q13485 (parent)
chain: B1 chain
partner: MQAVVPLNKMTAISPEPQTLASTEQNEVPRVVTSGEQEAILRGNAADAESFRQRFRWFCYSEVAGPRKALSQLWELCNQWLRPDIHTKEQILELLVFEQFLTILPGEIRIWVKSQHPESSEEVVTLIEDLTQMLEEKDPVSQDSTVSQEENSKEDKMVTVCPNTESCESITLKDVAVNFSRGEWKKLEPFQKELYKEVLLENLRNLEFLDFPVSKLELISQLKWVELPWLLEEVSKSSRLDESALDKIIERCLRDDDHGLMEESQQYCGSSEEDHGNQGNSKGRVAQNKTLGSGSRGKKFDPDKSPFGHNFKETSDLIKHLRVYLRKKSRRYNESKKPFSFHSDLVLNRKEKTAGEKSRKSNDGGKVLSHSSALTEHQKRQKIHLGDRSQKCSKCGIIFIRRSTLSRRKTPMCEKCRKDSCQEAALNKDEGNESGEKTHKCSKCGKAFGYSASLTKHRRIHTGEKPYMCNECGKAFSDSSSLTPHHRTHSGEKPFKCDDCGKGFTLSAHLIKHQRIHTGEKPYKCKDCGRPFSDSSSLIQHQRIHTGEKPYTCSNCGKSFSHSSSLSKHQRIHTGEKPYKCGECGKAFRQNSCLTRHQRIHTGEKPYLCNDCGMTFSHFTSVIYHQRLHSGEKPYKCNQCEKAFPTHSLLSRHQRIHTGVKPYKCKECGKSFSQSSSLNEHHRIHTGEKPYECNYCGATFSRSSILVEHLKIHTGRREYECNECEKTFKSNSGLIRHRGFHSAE
B8: Mothers against decapentaplegic homolog 4 (Homo sapiens), Q13485 (parent)
chain: B1 chain
partner: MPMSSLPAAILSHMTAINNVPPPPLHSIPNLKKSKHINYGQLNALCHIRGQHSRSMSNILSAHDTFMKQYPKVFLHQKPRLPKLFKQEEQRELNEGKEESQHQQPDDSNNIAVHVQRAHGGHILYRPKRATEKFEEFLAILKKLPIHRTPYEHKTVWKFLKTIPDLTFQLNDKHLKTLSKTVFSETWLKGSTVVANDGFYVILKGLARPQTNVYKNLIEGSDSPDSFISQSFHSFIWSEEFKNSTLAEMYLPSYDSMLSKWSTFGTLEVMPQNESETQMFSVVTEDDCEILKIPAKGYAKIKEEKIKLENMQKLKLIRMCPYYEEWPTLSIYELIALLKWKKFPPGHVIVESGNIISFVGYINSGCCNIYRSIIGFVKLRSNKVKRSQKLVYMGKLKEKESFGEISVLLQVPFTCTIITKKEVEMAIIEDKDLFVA

Variants of: B1
Conditions: with tnap3_human TNFAIP3, P21580

Variant	effect of a mutation on the interaction
G386D	with no effect

Variants of: B2
Conditions: with ttyh2_human TTYH2, Q9BSA4

Variant	effect of a mutation on the interaction
G386D	with no effect

Variants of: B3
Conditions: with frs2_human FRS2, Q8WU20

Variant	effect of a mutation on the interaction
R361C	with no effect

Variants of: B3
Conditions: with frs2_human FRS2, Q8WU20
Remark: another data set of the same source

Variant	effect of a mutation on the interaction
R361H	with no effect

Variants of: B4
Conditions: with phf6_human PHF6, Q8IWS0

Variant	effect of a mutation on the interaction
R361C	with no effect

Variants of: B5
Conditions: with plcg2_human PLCG2, P16885

Variant	effect of a mutation on the interaction
R361C	with no effect

Variants of: B6
Conditions: with sep12_human SEPTIN12, Q8IYM1

Variant	effect of a mutation on the interaction
R361C	with no effect

Variants of: B7
Conditions: with zn483_human ZNF483, Q8TF39

Variant	effect of a mutation on the interaction
R361C	with no effect

Variants of: B7
Conditions: with zn483_human ZNF483, Q8TF39
Remark: another data set of the same source

Variant	effect of a mutation on the interaction
R361H	with no effect

Variants of: B8
Conditions: with cnbd1_human CNBD1, Q8NA66

Variant	effect of a mutation on the interaction
R361H	with no effect
